Measurements published in article PMC11952967.

Experiments:
[1] = molecular target: MUTYH L111P (c.248T > C) (human (endogenous in HEK293T)); experiment: co-IP; MUTYH immunoprecipitated with MUTYH (C-6) antibody on Protein G Dynabeads from nuclear extract of wild-type or homozygous mutant HEK293T cells treated with 0.5 mM H2O2 for 1 h; 1 h at 4°C in PBST; blotted for APE1; APE1 signal quantified relative to MUTYH and normalised to unedited cells
[2] = molecular target: MUTYH D271G (c.728A > G) (human (endogenous in HEK293T)); experiment: as above
[3] = molecular target: MUTYH L296L (c.802C > T) (human (endogenous in HEK293T)); experiment: as above
[4] = molecular target: MUTYH W131* (c.309G > A) (human (endogenous in HEK293T)); experiment: as above
[5] = molecular target: MUTYH D271G (c.728A > G) (human (endogenous in HEK293T))
[6] = molecular target: MUTYH W131* (c.309G > A) (human (endogenous in HEK293T))

Sequence of MUTYH D271G (c.728A > G) (human (endogenous in HEK293T)) (Q9UIF7 whole entry, stated change not applied): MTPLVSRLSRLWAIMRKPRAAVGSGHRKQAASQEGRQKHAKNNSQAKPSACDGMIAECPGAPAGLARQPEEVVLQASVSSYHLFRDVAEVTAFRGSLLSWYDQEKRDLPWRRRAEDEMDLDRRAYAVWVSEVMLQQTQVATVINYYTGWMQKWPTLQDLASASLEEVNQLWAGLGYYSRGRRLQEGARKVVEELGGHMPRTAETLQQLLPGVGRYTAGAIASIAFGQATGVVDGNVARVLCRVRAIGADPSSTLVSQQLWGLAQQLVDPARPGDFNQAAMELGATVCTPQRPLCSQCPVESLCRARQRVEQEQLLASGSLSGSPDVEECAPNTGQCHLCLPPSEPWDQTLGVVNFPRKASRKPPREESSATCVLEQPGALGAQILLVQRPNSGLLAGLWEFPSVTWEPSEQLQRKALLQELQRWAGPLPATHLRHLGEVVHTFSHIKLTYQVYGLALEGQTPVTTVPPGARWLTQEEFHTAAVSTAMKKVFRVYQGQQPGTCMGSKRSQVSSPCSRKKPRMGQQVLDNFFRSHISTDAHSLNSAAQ
Sequence of MUTYH L111P (c.248T > C) (human (endogenous in HEK293T)) (Q9UIF7 whole entry, stated change not applied): as above
Sequence of MUTYH L296L (c.802C > T) (human (endogenous in HEK293T)) (Q9UIF7 whole entry): as the sequence (Q9UIF7 whole entry, stated change not applied) above

APE1 (apurinic/apyrimidinic endodeoxyribonuclease 1) (from UniProt P27695 1-318) (enzyme)
APE1 signal relative to MUTYH in the MUTYH immunoprecipitate, normalised to wild type (relative to wild-type levels) [1]: 0.82
APE1 signal relative to MUTYH in the MUTYH immunoprecipitate, normalised to wild type (relative to wild-type levels) [2]: 0.29
APE1 signal relative to MUTYH in the MUTYH immunoprecipitate, normalised to wild type (relative to wild-type levels) [3]: 0.8
APE1 signal relative to MUTYH in the MUTYH immunoprecipitate, normalised to wild type (relative to wild-type levels) [4]: 0.21
8-oxoG•[O] repair efficiency (average fold-change in MFI of EGFP+ cells compared to that of unedited HEK293T cells), homozygous D271G clones (fold of unedited HEK293T cells) [5]: 0.56
8-oxoG•[O] repair efficiency (average fold-change in MFI of EGFP+ cells compared to that of unedited HEK293T cells), homozygous W131* clones (fold of unedited HEK293T cells) [6]: 0.34
